Assay results reported in PMC6648591 (ACS Omega, 2019).
Non-standard residues stand in square brackets, D forms with d. No end group written: not given here. pGlu = O=C1CC[C@@H](C(=O)O)N1

Tests used:
[1] = target: T1, mature RmL (Rhizomucor miehei lipase) (Rhizomucor miehei, UniProt P19515); assay: GLAD lipase assay: inhibition of mature RmL by propeptide; format: biochemical; settings: isolated propeptide; RmL–propeptide molar ratio 1:64, 15 min incubation, 0.2 M HEPES, 1 mM CaCl2, 10 ppm Triton X-100, pH 8.5; substrate olive oil/4-methylumbelliferyl oleate on cellulose, detergent model B; room temperature; fluorescence 365/445 nm; Figure 4a
T1 construct: mature RmL; 95–363; 29,537.7; 29,538.2; made in house; host or cells: Aspergillus oryzae
T1 sequence (P19515 whole entry, looked up): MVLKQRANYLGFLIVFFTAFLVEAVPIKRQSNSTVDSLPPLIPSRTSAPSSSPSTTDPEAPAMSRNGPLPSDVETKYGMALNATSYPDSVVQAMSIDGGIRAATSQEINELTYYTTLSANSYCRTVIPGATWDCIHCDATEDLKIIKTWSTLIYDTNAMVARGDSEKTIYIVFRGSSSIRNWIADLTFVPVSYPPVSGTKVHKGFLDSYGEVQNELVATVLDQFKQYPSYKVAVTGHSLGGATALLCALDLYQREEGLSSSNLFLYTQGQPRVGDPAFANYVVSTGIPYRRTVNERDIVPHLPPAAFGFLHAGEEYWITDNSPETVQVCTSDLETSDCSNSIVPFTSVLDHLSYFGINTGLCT
Method: Inhibition of hydrolytic activity was determined by using the industrially relevant GLAD assay, measuring the release of 4-methylumbelliferone (4-MU) by purified mature RmL incubated with and without a propeptide (RmL–propeptide incubated at a molar ratio of 1:64) for 15 min in 0.2 M HEPES, 1 mM CaCl2, and 10 ppm Triton X-100 (adjusted to pH 8.5). As a substrate, we used cellulose cotton linters, Avicel PH-101 (Sigma-Aldrich, 11365), uniformly coated with a 4.5:1 mixture of olive oil (Sigma-Aldrich, O-1514) and 4-methylumbelliferyl oleate (oleic acid 4-methylumbelliferyl ester (Sigma-Aldrich, 75164): 4 mg/mL in n-hexane (Sigma-Aldrich, 15671)). The coated cellulose fibers were suspended in 0.2 M HEPES, 3 mM CaCl2, 0.5 mM MgCl2, and 10 ppm Triton X-100 mixed with 3.3 g/L detergent solution using detergent model B (model B composition: 1% (w/w) NaOH, 7.2% (w/w) LAS, 3% (w/w) SLES, 5.5% (w/w) soy and coco fatty acids, 6.6% (w/w) AEO, 3.33% (w/w) triethanol amine, 2% (w/w) Na-citrate, 0.5% (w/w) DTMPA, 6% (w/w) MPG, 3% EtOH, 1.7% (w/w) glycerol, 1% (w/w) sodium formate, 0.1% (w/w) PCA; adjusted to pH 8.5) and RmL −/+ propeptide. The enzyme activity at room temperature was followed by measuring the fluorescence (kinetic mode) every 30 s at an excitation wavelength of 365 nm and emission wavelength of 445 nm from 1 to 6 min. […]

Rhizomucor miehei lipase = settings: activity-related mutation in propeptide; cited from earlier work
From the text: The buried surface area between the propeptide and the mature enzyme is ∼1771.2 Å^2 (analyzed using PISA,[23] corresponding to a strong protein–protein interaction).[24] The most significant interactions between the propeptide and mature enzyme from the PISA analysis are given in Table S1 (Supporting Information). One of these interactions involves Leu81, which is one of the activity-related mutations identified in ref ([17]) and is a part of the hydrophobic cluster at the ...

[2] = target: T2, mature Rhizomucor miehei lipase (Rhizomucor miehei, UniProt P19515 95-363); assay: fluorescence polarisation; 0.9 uM A488-labelled peptide mixed with mature RmL at 0.0002-10 uM, in duplicate; 50 mM HEPES pH 7.5, 100 mM NaCl, 1 mM CaCl2; 30 min at room temperature; Langmuir 1:1 fit; settings: both partners purified
T2 sequence (looked up): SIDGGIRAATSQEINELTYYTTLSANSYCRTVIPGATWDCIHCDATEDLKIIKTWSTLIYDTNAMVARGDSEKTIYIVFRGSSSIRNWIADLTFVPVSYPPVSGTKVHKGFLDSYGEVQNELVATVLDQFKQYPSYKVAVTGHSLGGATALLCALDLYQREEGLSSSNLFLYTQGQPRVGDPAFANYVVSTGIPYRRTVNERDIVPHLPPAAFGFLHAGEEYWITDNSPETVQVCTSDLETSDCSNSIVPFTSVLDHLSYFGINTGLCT

[3] = Zymogram of native PAGE (lipase activity on olive oil plate); format: biochemical; settings: native PAGE gel placed on agarose plate: 50 mM HEPES (pH 7), 0.625% polyvinyl alcohol, 1.9% (v/v) olive oil, 0.05% brilliant green; Figure 8C
From the text: The compositions for native PAGE were as follows. Resolving gel: 12% acrylamide-bis-acrylamide; 0.4 M Tris (pH 8.8), 0.1% APS, 0.04% TEMED. Stacking gel: 5.1% acrylamide-bis-acrylamide; 0.25 M Tris (pH 6.8), 0.1% APS, 0.1% TEMED. Loading dye: 0.06 M Tris (pH 6.8), 0.01% bromophenol blue, 10% glycerol. Running buffer: 3 g/L Tris base, 14.4 g/L glycine. Gel (B) is stained with brilliant blue. Zymogram: After electrophoresis, the native PAGE was placed on an agarose/brilliant blue plate (4% Litex HSB agarose protein grade, 50 mM HEPES (pH 7), 0.625% polyvinyl alcohol, 1.9% (v/v) olive oil, and 0.05% brilliant green (Sigma)).

[4] = target: T2, mature Rhizomucor miehei lipase; assay: crystal structure; wild-type ProRmL sample, 10 mg/mL; 30% PEG8K, 0.1 M Na-cacodylate pH 6.5, 0.2 M ammonium sulfate; 293 K; molecular replacement with 3TGL; settings: both partners purified

B1: propeptide: Cleaved propeptide, separated from the mature enzyme, residues 30–94 (protein)
chain: [pGlu]SNSTVDSLPPLIPSRTSAPSSSPSTTDPEAPAMSRNGPLPSDVETKYGMALNATSYPDSVVQAM
modifications: also: N-glycosylation (GlcNAc after EndoH), site not given here, hexose at O-glycosylation site, site not given here
- inhibition of lipase activity [1]: clear inhibition of activity

B2: L81V: activity-related propeptide mutation L81V of R. miehei lipase identified in ref 17 (protein, UniProt P19515 25-363, looked up, variant L81V)
pro-form: VPIKRQSNSTVDSLPPLIPSRTSAPSSSPSTTDPEAPAMSRNGPLPSDVETKYGMAVNATSYPDSVVQAMSIDGGIRAATSQEINELTYYTTLSANSYCRTVIPGATWDCIHCDATEDLKIIKTWSTLIYDTNAMVARGDSEKTIYIVFRGSSSIRNWIADLTFVPVSYPPVSGTKVHKGFLDSYGEVQNELVATVLDQFKQYPSYKVAVTGHSLGGATALLCALDLYQREEGLSSSNLFLYTQGQPRVGDPAFANYVVSTGIPYRRTVNERDIVPHLPPAAFGFLHAGEEYWITDNSPETVQVCTSDLETSDCSNSIVPFTSVLDHLSYFGINTGLCT
modifications: pro-form
- activity of the mutant (Rhizomucor miehei lipase): increased activity

Molecule: SDVETKYGMALNATSYC(A488) [propeptide fragment SDVETKYGMALNATSYC-A488]
- Kd [2]: 200 nM

B3: mature RmL: the mature wild-type enzyme without propeptide, residues 95–363 (protein)
chain: T2 sequence (looked up)
- lipase activity in zymogram at the band corresponding to mature RmL [3]: much stronger in mature RmL than in wild-type ProRmL

B4: Rhizomucor miehei lipase propeptide (cleaved propeptide) (domain or fragment, UniProt P19515 30-94, looked up)
chain: [pGlu]SNSTVDSLPPLIPSRTSAPSSSPSTTDPEAPAMSRNGPLPSDVETKYGMALNATSYPDSVVQAM
modifications: also: N-glycosylation (GlcNAc after EndoH), site not given here, hexose at O-glycosylation site, site not given here
- binding result [4]: binds
